Measured values from PMC11767649, “Two Cysteines in Raf Kinase Inhibitor Protein Make Differential Contributions to Structural Dynamics In Vitro” (Molecules, 2025).
Positions count from the first letter of the chain named. Names and notes keep the numbering of the source.

B1: rhRKIP C133S mutant, histidine-tagged (natural protein, human, UniProt P30086 1-187, looked up)
chain: MPVDLSKWSGPLSLQEVDEQPQHPLHVTYAGAAVDELGKVLTPTQVKNRPTSISWDGLDSGKLYTLVLTDPDAPSRKDPKYREWHHFLVVNMKGNDISSGTVLSDYVGSGPPKGTGLHRYVWLVYEQDRPLKSDEPILSNRSGDHRGKFKVASFRKKYELRAPVAGTCYQAEWDDYVPKLYEQLSGK
notes: human RKIP (PEBP1), cDNA GenBank NM_002567 in pET28B+, site-directed mutant; Same construct as m1 with the point mutation; source: E. coli BL21(DE3), purified (Ni-NTA)
B2: rhRKIP C168S mutant, histidine-tagged (natural protein, human, UniProt P30086 1-187, looked up)
chain: B1 chain with S133C, C168S
notes: as for B1
B3: rhRKIP Ser153 to glutamate mutant, histidine-tagged (natural protein, human, UniProt P30086 1-187, looked up)
chain: B1 chain with S133C, S153E
notes: human RKIP (PEBP1), cDNA GenBank NM_002567 in pET28B+, site-directed mutant; Same construct as m1 with the point mutation; also called S153E; source: E. coli BL21(DE3), purified (Ni-NTA)
B4: rhRKIP C168A mutant, histidine-tagged (natural protein, human, UniProt P30086 1-187, looked up)
chain: B1 chain with S133C, C168A
notes: as for B1
B5: rhRKIP Ser153 to alanine mutant, histidine-tagged (natural protein, human, UniProt P30086 1-187, looked up)
chain: B1 chain with S133C, S153A
notes: human RKIP (PEBP1), cDNA GenBank NM_002567 in pET28B+, site-directed mutant; Same construct as m1 with the point mutation; also called S153A; source: E. coli BL21(DE3), purified (Ni-NTA)
B6: rhRKIP Ser153 to aspartate mutant, histidine-tagged (natural protein, human, UniProt P30086 1-187, looked up)
chain: B1 chain with S133C, S153D
notes: human RKIP (PEBP1), cDNA GenBank NM_002567 in pET28B+, site-directed mutant; Same construct as m1 with the point mutation; also called S153D; source: E. coli BL21(DE3), purified (Ni-NTA)

Key:
[1] = target: the molecule itself; assay: non-reducing SDS-PAGE; purified rhRKIP in sample loading buffer without β-mercaptoethanol or boiling; Coomassie Brilliant Blue staining or anti-His immunoblot
[2] = target: the molecule itself; assay: LC Q-TOF mass spectrometry; purified rhRKIP WT and mutant proteins in buffer at pH 7.4; peaks around 22 kDa (monomer) and 44 kDa (dimer)

Row | Protein | stoichiometry N [1] | stoichiometry N [2]
1 | B1 | 2 | –
2 | B2 | 2 | –
3 | B3 | 2 | –
4 | B4 | – | 2
5 | B5 | 2 | –
6 | B6 | 2 | –
